The data set deals with purified bovine aggrecan monomers isolated from bovine nasal cartilage, P13608.

The results in this text go back to patent publication US20030108998.

Sequence of purified bovine aggrecan monomers isolated from bovine nasal cartilage, P13608 (P13608 17-2364): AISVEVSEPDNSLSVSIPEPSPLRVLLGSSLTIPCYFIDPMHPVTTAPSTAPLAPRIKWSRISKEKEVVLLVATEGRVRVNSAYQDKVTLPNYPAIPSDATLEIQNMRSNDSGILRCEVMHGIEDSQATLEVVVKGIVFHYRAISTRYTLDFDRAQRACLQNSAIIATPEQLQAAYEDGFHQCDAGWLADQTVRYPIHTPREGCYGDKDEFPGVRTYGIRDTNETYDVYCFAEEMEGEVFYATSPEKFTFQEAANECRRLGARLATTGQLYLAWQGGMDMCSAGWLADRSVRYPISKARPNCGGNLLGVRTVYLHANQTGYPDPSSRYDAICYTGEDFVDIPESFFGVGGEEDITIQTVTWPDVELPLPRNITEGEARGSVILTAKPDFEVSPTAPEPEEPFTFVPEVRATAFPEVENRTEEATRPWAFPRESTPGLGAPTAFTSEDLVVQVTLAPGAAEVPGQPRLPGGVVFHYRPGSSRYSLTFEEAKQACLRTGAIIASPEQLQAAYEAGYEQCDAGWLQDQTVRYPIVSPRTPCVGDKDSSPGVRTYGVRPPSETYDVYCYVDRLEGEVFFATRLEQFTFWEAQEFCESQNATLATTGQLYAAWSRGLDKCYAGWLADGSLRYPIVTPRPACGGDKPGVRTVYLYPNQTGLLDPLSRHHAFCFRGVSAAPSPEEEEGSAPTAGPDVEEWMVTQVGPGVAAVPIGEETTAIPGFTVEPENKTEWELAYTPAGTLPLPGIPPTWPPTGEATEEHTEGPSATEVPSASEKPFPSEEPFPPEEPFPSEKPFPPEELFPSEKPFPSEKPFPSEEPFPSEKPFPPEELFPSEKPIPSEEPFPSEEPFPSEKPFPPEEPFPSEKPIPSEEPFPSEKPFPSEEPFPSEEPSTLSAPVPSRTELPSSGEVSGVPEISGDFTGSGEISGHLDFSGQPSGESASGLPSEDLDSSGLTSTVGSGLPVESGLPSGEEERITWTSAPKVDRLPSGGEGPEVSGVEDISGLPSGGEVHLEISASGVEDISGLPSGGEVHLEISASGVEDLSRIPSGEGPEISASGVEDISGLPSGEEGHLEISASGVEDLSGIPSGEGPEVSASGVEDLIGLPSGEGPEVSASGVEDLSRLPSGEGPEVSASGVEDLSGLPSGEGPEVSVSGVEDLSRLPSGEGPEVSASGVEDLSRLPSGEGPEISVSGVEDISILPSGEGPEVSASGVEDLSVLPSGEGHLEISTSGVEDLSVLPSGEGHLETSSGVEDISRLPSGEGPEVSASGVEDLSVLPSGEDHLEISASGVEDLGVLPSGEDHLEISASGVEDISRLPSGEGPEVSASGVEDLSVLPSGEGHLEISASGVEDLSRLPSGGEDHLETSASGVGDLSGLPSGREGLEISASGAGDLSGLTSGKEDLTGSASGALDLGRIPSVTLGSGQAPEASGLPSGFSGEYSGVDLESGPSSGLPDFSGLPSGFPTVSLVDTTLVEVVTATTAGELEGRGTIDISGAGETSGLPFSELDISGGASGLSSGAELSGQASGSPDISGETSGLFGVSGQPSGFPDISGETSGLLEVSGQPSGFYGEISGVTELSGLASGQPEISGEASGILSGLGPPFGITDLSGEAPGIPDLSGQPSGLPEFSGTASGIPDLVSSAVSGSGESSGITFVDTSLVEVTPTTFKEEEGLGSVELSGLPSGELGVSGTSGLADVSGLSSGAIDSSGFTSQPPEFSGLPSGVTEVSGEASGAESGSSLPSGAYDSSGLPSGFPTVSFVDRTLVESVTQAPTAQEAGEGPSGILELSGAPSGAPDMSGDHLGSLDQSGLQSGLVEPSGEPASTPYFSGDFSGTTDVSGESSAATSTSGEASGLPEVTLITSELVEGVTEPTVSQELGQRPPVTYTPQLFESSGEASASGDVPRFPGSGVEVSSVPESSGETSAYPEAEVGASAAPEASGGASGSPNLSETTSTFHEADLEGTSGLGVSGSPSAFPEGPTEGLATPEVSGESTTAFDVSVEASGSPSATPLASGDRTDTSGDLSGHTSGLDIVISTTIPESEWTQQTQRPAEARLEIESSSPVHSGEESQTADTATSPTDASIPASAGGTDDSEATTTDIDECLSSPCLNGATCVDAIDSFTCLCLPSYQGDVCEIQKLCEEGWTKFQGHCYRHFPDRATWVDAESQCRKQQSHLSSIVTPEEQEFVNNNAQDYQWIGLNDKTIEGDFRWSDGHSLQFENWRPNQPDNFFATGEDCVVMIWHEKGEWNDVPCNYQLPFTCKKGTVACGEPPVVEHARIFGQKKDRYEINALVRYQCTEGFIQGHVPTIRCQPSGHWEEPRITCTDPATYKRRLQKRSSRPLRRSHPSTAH

B1: ADMP-1 (aggrecan degrading metallo protease 1), 67 kDa active form purified from conditioned media of IL-1-stimulated bovine nasal cartilage (protein)
chain: FASLSRFVETLVVADDKMAAFHGAGLKRYLLTVMAAAAKAFKHPSIRNPVSLVVTRLVVLGPGEEGPQVGPSAAQTLRSFCAWQRGLNTPDDADPGHFDTAILFTRQDLCGVSTCDTLGMADVGTVCDPARSCAIVEDDGLQSAFTAAHELGHVFSMLHDNSKQCTGLNGPESTSRHVMAPVMAHVDPEEPWSPCSARFITDFLDNGFGHCLLDKPEAPLHLPVTFPGKDYDADRQCQLTFGPDSRHCPQLPPPCAALWCSGHLNGHAMCQTKHSPWADGTPCGPAQACMGGRCLHVDQLQAFNVPQAGGWGPWGSWGDCSRSCGGGVQFSSRDCTRPVPRNGGKYCEGRRTRFRSCNTQDCPTGSALTFREEQCAAYNHRTDLFKNFPGPMDWVPRYTGVAPRDQCKLTCQTRALGYYYVLDPRVADGTPCSPDSSSVCVQGRCIHAGCDRVIGSKKKFDKCMVCGGDGSSCSKQSGSFKKFRYGYNNVVTIPAGATHILVRQQGSPSVRSLYLALKLPDGSYALNGEYTLIPSPTDVVLPGAVSLRYSGATAASETLSGHGPLAEPLTLQVLVAGNPQNARLRYSFFVPRPRPVPSTPRPTPQDWLRRKSQILEILRRRSWAGRK
Consider B1, for which the “ADMP activity (incubation with aggrecan substrate, products monitored with the BC-3 antibody)” value is “The region of the gel containing the 67 kDa ADMP-1 protein exhibited activity while that of the control portion of the gel did not” and the “cleavage of aggrecan at Glu373-Ala374, detected as BC-3-reactive fragments (Western blot)” value is “Incubation of the GuHCl-eluted ADMP-1 with isolated bovine aggrecan produced a pattern of BC-3-reactive fragments similar to that produced upon cleavage of cartilage aggrecan by endogenous aggrecanase”.
